Ends that are not written are not given here.

The target in this test is T1, Recombinant Human ErbB2/Fc Chimera (produced by R&D Systems) (human, UniProt P04626 23-652).
T1 construct: Bought reagent; Immobilised by amine coupling on a GLM chip, about 3,000 RU; also called HER2; Fc part of the bought chimera not given
Put plainly: SPR (ProteOn XPR36), ErbB2/Fc amine-coupled on GLM chip, conjugate injected, 1:1 Langmuir fit. The method, then: The bonding property of the PEG including the capture molecule to HER2 serving as a target molecule was evaluated by a surface plasmon resonance method (SPR). In SPR, the measurement was performed using Proteon (registered trademark) XPR36 (produced by Bio-Rad Laboratories). Recombinant Human ErbB2/Fc Chimera (produced by R&D Systems) was dissolved into an acetate buffer (pH 5.0), and was immobilized by amine coupling to a carboxyl group on the GLM sensor chip surface. The amount of immobilization was about 3,000 RU (Resonance Unit). Subsequently, the PEG including the capture molecule was diluted to various concentrations with a phosphate buffer (pH 7.4) containing 0.005% of Tween20 and was injected into a flow cell at a flow rate of 50 microliters/min. As for the measurement times, an injection time (bonding) was 120 seconds and an elapsed time after stopping of injection (dissociation) was 120 seconds. In a bonding kinetic analysis experiment, sensor grams were analyzed using 1:1 Langmuir fitting model. The bonding property to HER2 was ensured with respect to every sample. In particular, strong bonding property was ensured with respect to scFv-PEG40, Af-PEG20, and Af-PEG40.

As for MARSGLGGKGSC(PEG ME‑400MA) (also: ICG-Sulfo-OSu conjugated, site not given here, Conjugate with PEG 40k and ICG) [pe-PEG40 (PEG ME-400MA modified with ICG and the HER2-binding peptide of Sequence No. 3)], the dissociation constant (Kd) was determined as 3100 nM.

For MARSGLGGKGSC(PEG ME‑200MA) (also: ICG-Sulfo-OSu conjugated, site not given here, Conjugate with PEG 20k and ICG) [pe-PEG20 (PEG ME-200MA modified with ICG and the HER2-binding peptide of Sequence No. 3)], the Kd came to 2600 nM.
